Columns and labels:
Conditions in all cases: both partners purified
[1] = target: NTD + RBD (aa 13–541) of the SARS-CoV-2 S protein (SARS-CoV-2, wild type (Wuhan-Hu-1 …, UniProt P0DTC2)); assay: ELISA
[2] = target: T1, S1 (aa 13–685) of the SARS-CoV-2 S protein (SARS-CoV-2, wild type (Wuhan-Hu-1 …, UniProt P0DTC2)); assay: ELISA
T1 construct: also called subunit 1

[3] = target: T2, recombinant S ECD protein (aa 13–1208) of SARS-CoV-2 (SARS-CoV-2, UniProt P0DTC2); assay: ELISA
T2 construct: also called S protein; extracellular domain of the S protein

[4] = target: T3, SARS-CoV-2 S protein (ECD, His and Flag Tag) (GenScript) (SARS-CoV-2, wild type (Wuhan-Hu-1 …, UniProt P0DTC2)); assay: SPR
T3 construct: source: bought: GenScript

B1: 7G7/κ (antibody, V domains shown)
VH: QVQLVESGGGVVQPGRSLRLSCIASGFTFRNYAMYWVRQAPGKGLEWVAVIWYDGSNKFYTDSVKGRFTISRDNSKNSLYLQMNSLRAEDTAVYFCARDQGFGDNYYYYGMDVWGQGTTVTVSS
VL: SYELTQPPSVSVSPGQTARISCSGDALPKEYAYWYQQKPGQAPVLVIYKDSERPSGIPERFSGSSSGTTVTLTISGVQAEDEADYYCQLADSSMHYVVFGGGTKLTVL
notes: also called 7G7-IgG1κ; 7G7/κ (IgG1/Igκ); source: Expi293F, cotransfected with IgH and IgL vectors, purified (HiTrap Protein G)
Question: Does B1 bind [1]?
Answer: Result: binds

Question: Does B1 bind [2]?
Answer: Result: binds

Question: Does B1 bind [3]?
Answer: Result: binds

B2: 7G7/λ (antibody, V domains shown)
VH: QVQLVESGGGVVQPGRSLRLSCIASGFTFRNYAMYWVRQAPGKGLEWVAVIWYDGSNKFYTDSVKGRFTISRDNSKNSLYLQMNSLRAEDTAVYFCARDQGFGDNYYYYGMDVWGQGTTVTVSS
VL: SYELTQPPSVSVSPGQTARISCSGDALPKEYAYWYQQKPGQAPVLVIYKDSERPSGIPERFSGSSSGTTVTLTISGVQAEDEADYYCQLADSSMHYVVFGGGTKLTVL
notes: also called 7G7 (7G7/λ); IgG1/Igλ2; source: Expi293F, cotransfected with IgH and IgL vectors, purified (HiTrap Protein G)
Question: Does B2 bind [3]?
Answer: Result: binds

B3: NIBIC-71 (antibody, V domains shown)
VH: EVQLVESGGGLIQPGGSLRLSCEASGLIVSSNYMTWVRQAPGKGLEWVSVIYSGGSTFYADSVKGRFTVSRDNSKNTLYLQMNNLSPEDTAVYYCARDLGPYGVDVWGQGTTVTVSS
VL: AIQLTQSPSSLSASVGDRVTITCRASQGISSYLAWYQQTPGKAPKLLIYAASTLQSGVPSRFSGSGSGTDFTLTISSLQPEDFATYYCQQLNSYPPFTFGPGTKVDIK
notes: also called recombinant mAb NIBIC-71
Question: Which Kd [4] does the source give for B3 here?
Answer: The Kd was 1.33 nM.

Question: And the koff [4]?
Answer: Its koff is 6.35e-05 s⁻¹.

Question: What about the kon [4] of the same binder?
Answer: The kon was 47700 M⁻¹ s⁻¹.
